The results in this text go back to patent US20140120109A1 (Regeneron, published 2014).

The target in assay [1] is T1, human TL1A, soluble, CHO-expressed, residues 72-251 of SEQ ID NO:244 with N-terminal His6-tag (human, UniProt O95150 72-251).
T1 construct: also called hTL1A; hTL1A (CHO)
T1 sequence: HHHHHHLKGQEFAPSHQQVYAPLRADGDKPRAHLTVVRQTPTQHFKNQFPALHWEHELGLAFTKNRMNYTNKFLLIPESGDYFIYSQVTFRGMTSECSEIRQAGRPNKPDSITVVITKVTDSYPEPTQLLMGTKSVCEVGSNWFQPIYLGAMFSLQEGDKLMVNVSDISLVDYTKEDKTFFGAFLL
As to the kind of experiment: SPR 37C, mAb captured. A digest of the protocol:
(§1)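 Biacore T100 SPR with captured mAb and soluble TL1A/Fhm analyte; ka and kd fitted to a 1:1 model assuming monomeric TL1A. KD = kd/ka; t1/2 (min) = ln2/(60·kd).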

The target of assay [2] is T2, cynomolgus monkey TL1A, soluble, CHO-expressed, residues 72-251 of SEQ ID NO:248 with N-terminal His6-tag (cynomolgus monkey (Macaca fascicularis), UniProt O95150 72-251 (human entry)).
T2 construct: also called MfTL1A; MfTL1A (CHO)
T2 chain: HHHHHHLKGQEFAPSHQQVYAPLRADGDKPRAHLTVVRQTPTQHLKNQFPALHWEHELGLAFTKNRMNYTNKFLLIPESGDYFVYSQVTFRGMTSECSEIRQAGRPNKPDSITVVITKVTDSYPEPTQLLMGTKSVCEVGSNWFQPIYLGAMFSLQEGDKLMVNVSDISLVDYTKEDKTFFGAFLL
Nature of the assay: SPR 37C, mAb captured. A digest of the protocol: as §1

Assay [3] deals with T3, cynomolgus monkey TL1A, soluble, E. coli-expressed, residues 72-251 of SEQ ID NO:248 (cynomolgus monkey (Macaca fascicularis), UniProt O95150 72-251 (human entry)).
T3 construct: with or without N-terminal Met; also called MfTL1A (E. Coli)
T3 chain: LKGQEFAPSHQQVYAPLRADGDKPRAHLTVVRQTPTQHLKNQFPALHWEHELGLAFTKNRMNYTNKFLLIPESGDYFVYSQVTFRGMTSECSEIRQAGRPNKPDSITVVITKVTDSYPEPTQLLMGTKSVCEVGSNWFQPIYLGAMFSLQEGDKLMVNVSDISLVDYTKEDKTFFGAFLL
Nature of the assay: SPR 37C, mAb captured. A digest of the protocol: as §1

Assay [4] deals with T4, mouse TL1A, soluble, CHO-expressed, residues 76-252 of SEQ ID NO:250 with N-terminal His6-tag (mouse, UniProt Q5UBV8 76-252).
T4 construct: also called mTL1A; mTL1A (CHO)
T4 sequence: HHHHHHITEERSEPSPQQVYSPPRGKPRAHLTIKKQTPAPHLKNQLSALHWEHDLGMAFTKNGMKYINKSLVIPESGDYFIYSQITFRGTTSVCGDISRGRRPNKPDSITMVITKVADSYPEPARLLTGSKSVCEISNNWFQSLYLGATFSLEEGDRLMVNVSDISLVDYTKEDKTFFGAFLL
As to the kind of experiment: SPR 37C, mAb captured. Put shortly: as §1

Assay [5] deals with T5, Fhm, hTL1A(Q167R), soluble, CHO-expressed, residues 72-251 of SEQ ID NO:246 (human, UniProt O95150 72-251).
T5 chain: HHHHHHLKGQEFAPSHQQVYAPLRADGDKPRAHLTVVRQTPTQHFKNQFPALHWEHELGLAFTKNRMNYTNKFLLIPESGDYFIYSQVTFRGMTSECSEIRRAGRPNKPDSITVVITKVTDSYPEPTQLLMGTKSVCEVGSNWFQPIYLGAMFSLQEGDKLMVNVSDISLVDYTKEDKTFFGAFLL
Nature of the assay: cell-based or functional assay.

In assay [6] the target is T5, Fhm, hTL1A(Q167R), soluble, …. As to the kind of experiment: ELISA, blocks FHM (150 pM) binding hDR3-Fc. As for the experimental part: The ability of antibodies to block human TL1A binding to its cognate receptors, the DR3 and DcR3 receptors, was measured using a competition sandwich ELISA. In addition, blocking of a human TL1A variant FHM (human TL1A Q167R) and the cynomolgus monkey (Macaca fascicularis) TL1A (MfTL1A) protein binding to the human DR3 or DcR3 receptors was measured in the same manner. Constant amounts of biotinylated human TL1A or FHM (both expressed with a 6-His tag in CHO cells) or biotinylated MfTL1A (expressed in CHO cells) were separately titrated with varying amounts of antibodies. The antibody-protein complexes were incubated in solution (1 hr, 25° C.) and then transferred to microtiter plates coated with human DR3 (hDR3) or human DcR3 (hDcR3) expressed as human IgG1 Fc fusion proteins. After one hour at 25° C. the wells were washed, and bound human or monkey TL1A was detected with streptavidin conjugated with horseradish peroxidase (HRP). Wells were developed with a TMB solution to produce a colorimetric reaction and quenched with aqueous sulfuric acid before reading absorbance at 450 nm on a Perkin-Elmer Victor X5 plate reader. A sigmoidal dose-response curve was fit to the data using the Prism™ data analysis package. […] Both fully human anti-hTL1A mAbs and comparator antibodies, i.e., control mAb1 (an anti-hTL1A antibody with heavy and light chain variable domains having the amino acid sequences corresponding to SEQ ID NOS:21 and 27, respectively, of US 2009/0280116) and control mAb3 (an anti-hTL1A antibody with heavy and light chain variable domains having the amino acid sequences corresponding to SEQ ID NOS:57 and 48, respectively, of US 2009/0280116), were included in the study. NB: No binding under the conditions tested; NT: Not tested. Concentrations of biotinylated soluble ligands: (1) 150 pM; (2) 500 pM; (3) 10 pM; and (4) 50 pM.

B1: H4H1681N (antibody, human IgG4 S228P, V domains shown)
VH: EVQLLESGGGLVQPGKSLRLSCAVSGFTFSTYGMNWVRQAPGKGLEWVSSISGTGRTTYHADSVQGRFTVSRDNSKNILYLQMNSLRADDTAVYFCTKERGDYYYGVFDYWGQGTLVTVSS
VL: DIQMTQSPSTLSASVGDRVTITCRASQTISSWLAWYQQTPEKAPKLLIYAASNLQSGVPSRFSGSGSGTEFTLTISSLQPDDFATYYCQQYHRSWTFGQGTKVEIT
In assay [1], B1 yielded a Kd of 0.254 nM and a t1/2 of 0.517 h. In assay [2], binding was put at a Kd of 0.226 nM and the t1/2 was found to be 0.533 h.

B2: H4H1752P (antibody, human IgG4 S228P, V domains shown)
VH: EVQLVESGGGLVQPGGSLRLSCSASGFTFSKYVMTWVRQAPGKGLEWVSAIGPTGRTTEYADSVQGRFTISRDNSMNTVFLHLNSLTAEDTAEYYCAKMFDWNYDVYFDSWGQGTLVTVSS
VL: DIQMTQSPSILSASVGDRVTITCRTSQSISNWLAWYQQKPGKAPNLLIYKASSLESGVPSRFSGSGSGTEFTLTISSLQPDDFATYYCQQYYRYWTFGQGTKVEIK
On to B2, for which the values for the Kd in assay [1], in assay [2] and in assay [3] were 0.225 nM, 0.223 nM and 1.32 nM, respectively. Further, the t1/2 in assay [1] was found to be 1.6 h; in assay [2], 1.52 h; in assay [3], 0.483 h. For the same molecule, the binding result in assay [4] is listed as “no binding (tested: up to 100 nM)”.

B3: H4H1805N (antibody, human IgG4 S228P, V domains shown)
VH: QVQLQQWGAGLLKPSETLSLTCAVYGGSFTGFYWSWIRQPPGKGLEWIGEINHRGNTNYNPSLKSRVTMSVDTSKNQFSLNMISVTAADTAMYFCASPFYDFWSGSDYWGQGTLVTVSS
VL: DIMLTQTPLTSPVTLGQPASISCKSSQSLVHSDGNTYLSWLQQRPGQPPRLLFYKISNRFSGVPDRFSGSGAGTDFTLKISRVEAEDVGVYYCMQATQFPLTFGGGTKVEIK
notes: human IgG4(S108P) form of H2M1805N
Turning to B3, in assay [1], the Kd came to 0.299 nM and the t1/2 was found to be 1.33 h. In assay [2], this molecule showed a Kd of 0.352 nM and a t1/2 of 1.13 h. Moreover, the “IC50, NFkB-luciferase reporter” value in assay [5] came to 186 nM.

B4: H4H1719P (antibody, human IgG4 S228P, V domains shown)
VH: EVQLVESGGGLVQPGRSLRLSCVASGFTFQDYAMHWVRQAPGKGLEWVSGINWISDDMGYADSVMGRFTISRDNAKNSLYLQMDSLRAEDTALYYCAKDKGLRFLDYVMDVWGQGTTVTVSA
VL: DIVMTQSPLSLPVTPGEPASISCRSTQSLLHRNGHNYLHWYLHKPGQSPQLLIHLGSNRASGVPDRFSGSGSGTDFTLKISRVEAEDVGVYYCMQALQTPYTFGQGTKLEIK
On to B4, for which the results for the Kd in assay [1], in assay [2] and in assay [3] were 0.00761 nM, 0.00201 nM and 0.289 nM, respectively. Moreover, the t1/2 in assay [1] is 31.9 h; in assay [2] it was 96.4 h; in assay [3], 0.667 h. For the same molecule, the binding result in assay [4] is on record as “no binding (tested: up to 100 nM)”. For the same molecule, the “IC50, NFkB-luciferase reporter” value in assay [5] amounted to 0.08 nM. Also, the IC50 in assay [6] was 0.023 nM.

B5: H4H1750P (antibody, human IgG4 S228P, V domains shown)
VH: QVQLVESGGGVVQPGRSLRLSCVASGFTFSNYGMHWVRQAPGKGLEWVAVISYDGNNDLYSDSVKGRFTISRDNAKNALSLQMTSLRAEDTAVYYCARDSTMTPYYYHGIDVWGQGTTVTVSA
VL: DIQMTQSPSSLSASVGDRVTITCRASQDIRNDLGWYQQKPGKAPKRLIYAASSLQSGVPSRFSGSGSGTDFTLTISSLQPEDFATYYCLQHNSYPPTFGQGTKVEIK
In assay [3], B5 returned a Kd of 456 nM and a t1/2 of 0.0167 h. Besides, the binding result in assay [4] was “no binding (tested: up to 100 nM)”. Further, the “IC50, NFkB-luciferase reporter” value in assay [5] worked out at 3.1 nM. In addition, in assay [6], the IC50 came out at 0.589 nM.
